Experimental data as given in the supplement of paper PMC10567573.

B1: ESRRA (parent)
chain: LGVAQRSLPLQDELAFAEDLVLDE

Variants of: B1
Experiment: protein stability index of a GFP-peptide fusion (GPS, HEK-293T) (PSI 1-6); higher = more stable
Details: c terminus: a fixed tail appended
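Further: lentivirally expressed fusions sorted by FACS into six bins by GFP to DsRed ratio, PSI derived from sequencing read proportions per bin multiplied by bin number.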

Row | Variant | protein stability index
1 | LGVAQRSLPWQDELAFAEDLVLDE [L10W] | 4.84
2 | LGVAQRSLPYQDELAFAEDLVLDE [L10Y] | 5.12
3 | LGVAQRSLPLQDPLAFAEDLVLDE [E13P] | 4.71
4 | LGVAQRSLPLQDQLAFAEDLVLDE [E13Q] | 2.99
5 | LGVAQRSLPLQDVLAFAEDLVLDE [E13V] | 2.64
6 | LGVAQRSLPLQDLLAFAEDLVLDE [E13L] | 2.5
7 | LGVAQRSLPLQDCLAFAEDLVLDE [E13C] | 3.38
8 | LGVAQRSLPLQDRLAFAEDLVLDE [E13R] | 4.62
9 | LGVAQRSLPLQDGLAFAEDLVLDE [E13G] | 4.81
10 | LGVAQRSLPLQDNLAFAEDLVLDE [E13N] | 5.15
11 | LGVAQRSLPLQDHLAFAEDLVLDE [E13H] | 4.44
12 | LGVAQRSLPLQDMLAFAEDLVLDE [E13M] | 3.16
13 | LGVAQRSLPLQDALAFAEDLVLDE [E13A] | 1.75
14 | LGVAQRSLPLQDSLAFAEDLVLDE [E13S] | 4.45
15 | LGVAQRSLPLQDFLAFAEDLVLDE [E13F] | 3.12
16 | LGVAQRSLPLQDWLAFAEDLVLDE [E13W] | 3.24
17 | LGVAQRSLPLQDYLAFAEDLVLDE [E13Y] | 3.5
18 | LGVAQRSLPLQDKLAFAEDLVLDE [E13K] | 4.95
19 | LGVAQRSLPLQDDLAFAEDLVLDE [E13D] | 2.5
20 | LGVAQRSLPLQDTLAFAEDLVLDE [E13T] | 3.92
21 | LGVAQRSLPLQDILAFAEDLVLDE [E13I] | 2.42
22 | LGVAQRSLPLQDELAFPEDLVLDE [A17P] | 5.19
23 | LGVAQRSLPLQDELAFTEDLVLDE [A17T] | 3.8
24 | LGVAQRSLPLQDELAFDEDLVLDE [A17D] | 4.99

Row | Variant | protein stability index
25 | LGVAQRSLPLQDELAFYEDLVLDE [A17Y] | 3.39
26 | LGVAQRSLPLQDELAFIEDLVLDE [A17I] | 3.96
27 | LGVAQRSLPLQDELAFLEDLVLDE [A17L] | 4.3
28 | LGVAQRSLPLQDELAFREDLVLDE [A17R] | 4.83
29 | LGVAQRSLPLQDELAFNEDLVLDE [A17N] | 5.35
30 | LGVAQRSLPLQDELAFGEDLVLDE [A17G] | 4.76
31 | LGVAQRSLPLQDELAFCEDLVLDE [A17C] | 4.9
32 | LGVAQRSLPLQDELAFKEDLVLDE [A17K] | 5.25
33 | LGVAQRSLPLQDELAFWEDLVLDE [A17W] | 2.02
34 | LGVAQRSLPLQDELAFMEDLVLDE [A17M] | 4.88
35 | LGVAQRSLPLQDELAFVEDLVLDE [A17V] | 4.77
36 | LGVAQRSLPLQDELAFFEDLVLDE [A17F] | 4.19
37 | LGVAQRSLPLQDELAFHEDLVLDE [A17H] | 4.95
38 | LGVAQRSLPLQDELAFEEDLVLDE [A17E] | 5.09
39 | LGVAQRSLPLQDELAFQEDLVLDE [A17Q] | 5.4
40 | LGVAQRSLPLQDELAFSEDLVLDE [A17S] | 4.49
41 | LGVAQRSLPLQDELAFAGDLVLDE [E18G] | 5
42 | LGVAQRSLPLQDELAFAPDLVLDE [E18P] | 4.64
43 | LGVAQRSLPLQDELAFAIDLVLDE [E18I] | 2.56
44 | LGVAQRSLPLQDELAFANDLVLDE [E18N] | 4.9
45 | LGVAQRSLPLQDELAFARDLVLDE [E18R] | 5.04
46 | LGVAQRSLPLQDELAFAVDLVLDE [E18V] | 3.65
47 | LGVAQRSLPLQDELAFAWDLVLDE [E18W] | 3.11
48 | LGVAQRSLPLQDELAFAMDLVLDE [E18M] | 3.84

Row | Variant | protein stability index
49 | LGVAQRSLPLQDELAFALDLVLDE [E18L] | 2.89
50 | LGVAQRSLPLQDELAFASDLVLDE [E18S] | 4.4
51 | LGVAQRSLPLQDELAFAQDLVLDE [E18Q] | 4.34
52 | LGVAQRSLPLQDELAFAADLVLDE [E18A] | 4.25
53 | LGVAQRSLPLQDELAFADDLVLDE [E18D] | 5.17
54 | LGVAQRSLPLQDELAFAYDLVLDE [E18Y] | 3.48
55 | LGVAQRSLPLQDELAFAHDLVLDE [E18H] | 4.6
56 | LGVAQRSLPLQDELAFATDLVLDE [E18T] | 4.81
57 | LGVAQRSLPLQDELAFACDLVLDE [E18C] | 4.09
58 | LGVAQRSLPLQDELAFAKDLVLDE [E18K] | 4.58
59 | LGVAQRSLPLQDELAFAFDLVLDE [E18F] | 3.3
60 | LGVAQRSLPLQDEIAFAEDLVLDE [L14I] | 5.15
61 | LGVAQRSLPLQDEHAFAEDLVLDE [L14H] | 5.43
62 | LGVAQRSLPLQDEYAFAEDLVLDE [L14Y] | 4.81
63 | LGVAQRSLPLQDEFAFAEDLVLDE [L14F] | 5.55
64 | LGVAQRSLPLQDEWAFAEDLVLDE [L14W] | 4.37
65 | LGVAQRSLPLQDETAFAEDLVLDE [L14T] | 5.5
66 | LGVAQRSLPLQDEEAFAEDLVLDE [L14E] | 5.5
67 | LGVAQRSLPLQDEQAFAEDLVLDE [L14Q] | 5.27
68 | LGVAQRSLPLQDENAFAEDLVLDE [L14N] | 5.42
69 | LGVAQRSLPLQDEGAFAEDLVLDE [L14G] | 5.46
70 | LGVAQRSLPLQDECAFAEDLVLDE [L14C] | 5.43
71 | LGVAQRSLPLQDESAFAEDLVLDE [L14S] | 5.66
72 | LGVAQRSLPLQDERAFAEDLVLDE [L14R] | 5.33

Row | Variant | protein stability index
73 | LGVAQRSLPLQDEVAFAEDLVLDE [L14V] | 4.92
74 | LGVAQRSLPLQDEDAFAEDLVLDE [L14D] | 5.68
75 | LGVAQRSLPLQDEAAFAEDLVLDE [L14A] | 5.24
76 | LGVAQRSLPLQDEMAFAEDLVLDE [L14M] | 2.13
77 | LGVAQRSLPLQDEKAFAEDLVLDE [L14K] | 5.15
78 | LGVAQRSLPLQDEPAFAEDLVLDE [L14P] | 5.38
79 | LGVAQRSLPLQDELARAEDLVLDE [F16R] | 3.03
80 | LGVAQRSLPLQDELANAEDLVLDE [F16N] | 3.63
81 | LGVAQRSLPLQDELAYAEDLVLDE [F16Y] | 2.93
82 | LGVAQRSLPLQDELADAEDLVLDE [F16D] | 3.47
83 | LGVAQRSLPLQDELACAEDLVLDE [F16C] | 3.86
84 | LGVAQRSLPLQDELAPAEDLVLDE [F16P] | 5.83
85 | LGVAQRSLPLQDELAWAEDLVLDE [F16W] | 2.45
86 | LGVAQRSLPLQDELAEAEDLVLDE [F16E] | 3.61
87 | LGVAQRSLPLQDELAAAEDLVLDE [F16A] | 3.16
88 | LGVAQRSLPLQDELAIAEDLVLDE [F16I] | 2.34
89 | LGVAQRSLPLQDELAHAEDLVLDE [F16H] | 3.46
90 | LGVAQRSLPLQDELATAEDLVLDE [F16T] | 5.04
91 | LGVAQRSLPLQDELAGAEDLVLDE [F16G] | 4.64
92 | LGVAQRSLPLQDELALAEDLVLDE [F16L] | 2.96
93 | LGVAQRSLPLQDELAVAEDLVLDE [F16V] | 4.09
94 | LGVAQRSLPLQDELASAEDLVLDE [F16S] | 4.66
